Substitutions are numbered along the chain they refer to. Bounds are passed on as bounds.

17 molecules from patent US20160122426A1 (DONG A SOCIO, published 2016) can be followed below.

Assay [1] addresses T1, human VEGF (human, UniProt P15692-4 27-191).
T1 construct: Bought recombinant protein; also called hVEGF; human VEGF-A
As to the kind of experiment: ELISA and BIAcore. (ELISA stands for enzyme-linked immunosorbent assay.)

The target in assay [2] is T2, mouse VEGF (mouse, UniProt Q00731-2 27-190).
T2 construct: Bought recombinant protein; also called mVEGF-A; mouse VEGF-A
T2 sequence (looked up): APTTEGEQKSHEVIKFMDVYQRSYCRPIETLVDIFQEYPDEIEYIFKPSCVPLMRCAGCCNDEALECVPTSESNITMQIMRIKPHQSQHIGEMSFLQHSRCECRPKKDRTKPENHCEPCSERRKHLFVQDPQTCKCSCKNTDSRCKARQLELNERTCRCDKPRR
As to the kind of experiment: ELISA and BIAcore.

For assay [3], the target named is T1, human VEGF. The assay can be described thus: SPR (BIAcore X100), VEGF on CM5 chip, IgG injected, 1:1 Langmuir. The source says: Meanwhile, to measure the affinity, human VEGF and mouse VEGF were coupled to carboxymethylated dextran biosensor chips (CM5, GE) according to the manufacturer's instructions.
The association and dissociation rates were expressed by the association and dissociation sensorgram, and calculated using a simple 1:1 Langmuir binding model (BIAcore X100 evaluation software, ver. 2.0).
In general terms: SPR reads the build-up and loss of mass on a sensor chip optically.

B1: HF2-2 (antibody, V domains shown)
VH: EVQLVESGGGLVQPGGSLRLSCAASRFNMRSHGMQWVRQAPGKGLEYVAGISSDGSWERVGAAVEGRFTISRDDSKNTAYLQMNSLRAEDTAVYYCARDFSTGYGADSIDAWGQGTLVTVSS
VL: DIQMTQSPSSLSASVGDRVTITCSGGSDSAYGYGWYQQKPGKAPKTLIYWDDKRPSGVPSRFSGSRSGTDFTLTISSLQPEDFATYYCGAWEYSGGVGIFGQGTKVEIK
On to B1, for which, in assay [1], the “fold affinity over mother clone F” value is not below 10 times. Also, the “fold affinity over mother clone F” value in assay [2] was not below 10 times. In assay [3], the Kd (commonly a measure of binding affinity in units of concentration) was less than 1 pM; the koff (in general, a measure of how fast the partners let go of each other) is less than 1e-06 s⁻¹; the kon – broadly, the rate constant with which the complex forms – is 1.1e+06 M⁻¹ s⁻¹.

B2: HF2-18 (antibody, V domains shown)
VH: B1 VH with R26Y, F27W, N28A, M29F, E58F, R59S, V60S, G61A
VL: B1 VL with D28I, S29E, A30P, Y31L
As for B2, the “fold affinity over mother clone F” value in assay [1] and in assay [2] was not below 10 times in each case.

B3: HF2-12 (antibody, V domains shown)
VH: B1 VH with R26Y, F27S, N28E, M29V, E58F, G61A
VL: B1 VL with D28M, S29E, A30P, Y31L
For the molecule B3, the “fold affinity over mother clone F” value in assay [1] and in assay [2] was not below 10 times throughout.

B4: HF2-15 (antibody, V domains shown)
VH: B1 VH with R26G, N28V, M29V, E58K, R59A, V60T, G61A
VL: B1 VL with D28Q, S29E, A30S, Y31L
In the case of B4, the “fold affinity over mother clone F” value in assay [1] and in assay [2] was not below 10 times in each case.

B5: HF2-21 (antibody, V domains shown)
VH: B1 VH with R26F, F27Q, N28Y, M29F, E58Y, G61Q
VL: B1 VL with D28M, S29E, A30P, Y31L
Turning to B5, the “fold affinity over mother clone F” value in assay [1] and in assay [2] was not below 10 times each time.

B6: HF2-23 (antibody, V domains shown)
VH: B1 VH with R26G, N28R, M29I, E58F, R59S, V60S, G61A
VL: B1 VL with S29L, A30L, Y31L
Take B6: the “fold affinity over mother clone F” value in assay [1] and in assay [2] was not below 10 times throughout.

B7: HF2-17 (antibody, V domains shown)
VH: B1 VH with R26G, N28M, M29I, E58R, V60H, G61S
VL: B1 VL with D28I, S29E, A30P, Y31L
Consider B7, for which the “fold affinity over mother clone F” value in assay [1] and in assay [2] was not below 10 times in each case.

B8: HF2-10 (antibody, V domains shown)
VH: B1 VH with R26F, F27Q, N28Y, M29F, E58F, G61A
VL: B1 VL with D28M, S29E, A30P, Y31L
For B8, in assay [1], the “fold affinity over mother clone F” value was not below 10 times. For the same molecule, the “fold affinity over mother clone F” value in assay [2] is not below 10 times. In assay [3], the Kd is less than 1 pM, the koff is less than 1e-06 s⁻¹ and the kon came out at 1.6e+06 M⁻¹ s⁻¹.

B9: HF2-6 (antibody, V domains shown)
VH: B1 VH with N28L, M29L, E58F, G61A
VL: B1 VL with D28M, S29E, A30P, Y31L
B9: in assay [1], the “fold affinity over mother clone F” value is not below 10 times. The “fold affinity over mother clone F” value in assay [2] is not below 10 times. In assay [3], this molecule registered a Kd of less than 1 pM, an off-rate constant (koff) of less than 1e-06 s⁻¹ and a kon of 1.6e+06 M⁻¹ s⁻¹.

B10: HF2-24 (antibody, V domains shown)
VH: B1 VH with E58V, R59K, G61A
VL: B1 VL with D28Q, S29E, A30S, Y31L
In the case of B10, the “fold affinity over mother clone F” value in assay [1] and in assay [2] was not below 10 times in each case.

B11: HF2-7 (antibody, V domains shown)
VH: B1 VH with R26Q, N28W, M29I, E58F, G61A
VL: B1 VL with D28M, S29E, A30P, Y31L
For the molecule B11, the “fold affinity over mother clone F” value in assay [1] is not below 10 times. For the same molecule, the “fold affinity over mother clone F” value in assay [2] was not below 10 times. In assay [3], this molecule yielded a Kd of 16 pM, a koff of 2.7e-05 s⁻¹ and a kon of 1.6e+06 M⁻¹ s⁻¹.

B12: HF2-13 (antibody, V domains shown)
VH: B1 VH with R26G, N28L, M29V, E58Q, G61N
VL: B1 VL with S29L, A30L, Y31L
Take B12: the “fold affinity over mother clone F” value in assay [1] was not below 10 times. The “fold affinity over mother clone F” value in assay [2] is not below 10 times. In assay [3], this molecule came in with a Kd not above 9 pM, a koff not above 1e-05 s⁻¹ and a kon of 1.4e+06 M⁻¹ s⁻¹.

B13: HF2-20 (antibody, V domains shown)
VH: B1 VH with R26Y, F27M, N28E, M29Y, E58S, G61D
VL: B1 VL
For the molecule B13, the “fold affinity over mother clone F” value in assay [1] and in assay [2] was not below 10 times throughout.

B14: HF2-16 (antibody, V domains shown)
VH: B1 VH with R26G, N28R, M29I, E58V, R59K, G61A
VL: B1 VL with D28I, S29E, A30P, Y31L
For the molecule B14, the “fold affinity over mother clone F” value in assay [1] and in assay [2] was not below 10 times throughout.

B15: HF2-14 (antibody, V domains shown)
VH: B1 VH with R26H, F27S, N28S, M29I, E58L, V60Q, G61D
VL: B1 VL
Regarding B15, the “fold affinity over mother clone F” value in assay [1] was not below 10 times. In assay [2], the “fold affinity over mother clone F” value was not below 10 times. In assay [3], this molecule registered a Kd of less than 1 pM, a koff of less than 1e-06 s⁻¹ and a kon of 1.3e+06 M⁻¹ s⁻¹.

B16: HF2-22 (antibody, V domains shown)
VH: B1 VH with R26G, N28R, M29I, E58F, G61A
VL: B1 VL with D28T, S29A, A30G, Y31V
With B16, the “fold affinity over mother clone F” value in assay [1] and in assay [2] was not below 10 times throughout.

B17: HF2-3 (antibody, V domains shown)
VH: B1 VH with R26H, E58F, G61A
VL: B1 VL with V58A
notes: also called HF-3
As for B17, the “fold affinity over mother clone F” value in assay [1] was not below 10 times. Moreover, the “fold affinity over mother clone F” value in assay [2] is not below 10 times. For the same molecule, in assay [3], the Kd is less than 1 pM, the koff is less than 1e-06 s⁻¹ and the kon came to 1.3e+06 M⁻¹ s⁻¹.
